Several values for one entry are separate records, joined by “and”; a condition that tells them apart may be missing. Equal entries are not always repeated. Blank lines part the entries; values can stand above or below the binder they belong to.
Tests used:
[1] = target: T1, STAT3 in fixed or permeabilized human tumour cells (U251 glioblastoma); MDA-MB-468 / MDA-MB-435 breast cancer … (human, UniProt P40763 2-770); assay: flow cytometry on fixed, methanol-permeabilized MDA-MB-468 cells (sheet title; legend paragraph 19 says MDA-MB-435); PE anti-human IgG; MFI (FL-2)
T1 construct: whole, on cells; STAT3 is intracellular and the cells were permeabilized; also called cellular antigens; cellular targets
T1 sequence (P40763 2-770): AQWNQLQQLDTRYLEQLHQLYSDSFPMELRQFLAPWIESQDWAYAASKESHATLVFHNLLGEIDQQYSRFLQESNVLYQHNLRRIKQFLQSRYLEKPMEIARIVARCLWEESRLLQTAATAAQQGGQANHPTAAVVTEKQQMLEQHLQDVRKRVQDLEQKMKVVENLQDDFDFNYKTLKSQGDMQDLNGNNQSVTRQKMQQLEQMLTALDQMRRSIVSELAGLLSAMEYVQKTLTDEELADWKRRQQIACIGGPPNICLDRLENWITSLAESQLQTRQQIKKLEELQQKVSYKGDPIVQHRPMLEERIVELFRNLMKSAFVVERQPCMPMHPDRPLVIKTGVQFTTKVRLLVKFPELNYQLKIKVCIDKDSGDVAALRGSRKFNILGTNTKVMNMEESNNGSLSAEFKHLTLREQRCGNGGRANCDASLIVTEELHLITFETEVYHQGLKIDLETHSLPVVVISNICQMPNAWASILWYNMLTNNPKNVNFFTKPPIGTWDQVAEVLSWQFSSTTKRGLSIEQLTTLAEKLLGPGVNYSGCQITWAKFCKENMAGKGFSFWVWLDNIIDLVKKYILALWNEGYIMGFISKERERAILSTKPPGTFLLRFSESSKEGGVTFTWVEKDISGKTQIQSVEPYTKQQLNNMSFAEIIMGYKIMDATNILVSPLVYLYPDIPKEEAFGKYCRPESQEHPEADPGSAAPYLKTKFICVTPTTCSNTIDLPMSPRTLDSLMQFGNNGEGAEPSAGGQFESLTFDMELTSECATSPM
Method: (§1) Next, the binding of the candidate anti-STAT3 antibodies to cellular targets was tested in cell binding assays using MDA-MB-435 breast cancer cells and U251 cells. The cells were seeded overnight in a 96 well plate, then fixed with PFA and permeabilized with methanol. Cells were incubated with serial dilutions of the anti-STAT3 antibody candidates ST1A5, ST3G12 and ST5G12 for one hour and 30 minutes. Following incubation, the cells were washed and incubated for 30 minutes with phycoerythrin (PE) conjugated anti-human IgG. Fluorescence was measured on an Intellicyte high-throughput flow cytometry analyzer. […] Bevacizumab (Avastin), a monoclonal antibody that inhibits vascular endothelial growth factor A (VEGF-A) was used as a negative control. As shown in FIG. 8A and FIG. 8B, the anti-STAT3 antibodies ST5G12 and ST3G12 both bound STAT3, with ST5G12 being an especially strong binder.

[2] = target: T1, STAT3 in fixed or permeabilized human …; assay: flow cytometry on fixed, methanol-permeabilized U251 cells; PE anti-human IgG; MFI (FL-2)
Method: as §1

[3] = target: T1, STAT3 in fixed or permeabilized human …; assay: flow cytometry (HTFC) on permeabilized U251 cells; PE anti-human IgG; MFI
Method: After 45 minutes at room temperature, cells were washed twice and incubated with phycoerythrin (PE) conjugated-anti-human IgG for 20 minutes at room temperature in the dark. Cells were then washed and analyzed by high throughput flow cytometry (HTFC). The results are shown in FIG. 9 for assessment of antibody binding to cellular antigens in U251 cells.

[4] = target: T2, recombinant human STAT3 proteins (human, UniProt P40763 1-770, limits assumed); assay: 'Binding ELISA, Hu-IgO Detection' (sheet title, 01052015), Superblock as blocking buffer; coated antigen not named, taken as STAT3 by analogy with the title of FIG. 10; OD 450 nm; the EC50 row has no unit, x axis in ng/ml
T2 construct: It may be the same STAT3-GST as in the Biacore assay
T2 sequence (P40763 whole entry): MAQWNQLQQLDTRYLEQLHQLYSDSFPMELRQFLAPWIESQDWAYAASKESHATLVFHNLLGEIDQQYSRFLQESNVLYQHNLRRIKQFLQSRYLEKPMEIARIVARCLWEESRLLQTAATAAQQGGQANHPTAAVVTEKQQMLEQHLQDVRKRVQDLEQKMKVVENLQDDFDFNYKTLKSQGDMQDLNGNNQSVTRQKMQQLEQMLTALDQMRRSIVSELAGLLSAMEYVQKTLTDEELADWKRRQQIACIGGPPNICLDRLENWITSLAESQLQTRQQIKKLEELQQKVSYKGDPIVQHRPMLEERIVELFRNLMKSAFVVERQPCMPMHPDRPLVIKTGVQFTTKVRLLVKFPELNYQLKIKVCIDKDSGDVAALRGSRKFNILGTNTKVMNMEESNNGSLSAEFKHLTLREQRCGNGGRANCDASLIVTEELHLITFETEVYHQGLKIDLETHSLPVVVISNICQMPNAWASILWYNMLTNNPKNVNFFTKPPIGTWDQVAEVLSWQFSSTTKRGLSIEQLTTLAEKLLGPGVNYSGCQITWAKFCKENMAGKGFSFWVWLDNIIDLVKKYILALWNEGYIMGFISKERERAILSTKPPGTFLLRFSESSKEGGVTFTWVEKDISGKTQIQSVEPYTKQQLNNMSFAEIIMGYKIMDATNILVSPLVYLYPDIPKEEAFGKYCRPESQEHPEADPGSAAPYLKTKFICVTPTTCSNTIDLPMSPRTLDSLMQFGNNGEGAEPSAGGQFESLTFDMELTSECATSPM

[5] = target: T2, recombinant human STAT3 proteins; assay: binding ELISA with Superblock as blocking buffer; coated antigen not named on the sheet (legend paragraph 30 says 'to human IgG'), taken as STAT3 by analogy with the title of FIG. 10; OD 450 nm; the EC50 row has no unit, x axis in ng/ml
GST protein = GST protein (UniProt P08515 1-218 = GST); assay: SPR (Biacore T200), antibody captured on anti-human Fc
Chain of GST protein (P08515 whole entry): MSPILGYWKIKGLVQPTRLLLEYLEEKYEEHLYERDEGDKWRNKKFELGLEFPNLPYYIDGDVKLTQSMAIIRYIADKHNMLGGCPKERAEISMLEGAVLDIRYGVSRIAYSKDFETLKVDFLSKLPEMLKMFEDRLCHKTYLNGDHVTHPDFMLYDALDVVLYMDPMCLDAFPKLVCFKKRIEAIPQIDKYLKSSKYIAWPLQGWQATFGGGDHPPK

[6] = target: T2, recombinant human STAT3 proteins; assay: ELISA on recombinant human STAT3 (sheet title 'STAT 3 binding'); Abs 450
[7] = target: T2, recombinant human STAT3 proteins; assay: STAT3 binding ELISA, Hu-IgG-FAB detection (sheet title; legend paragraph 22 says 'to human IgG'); OD 450 nm; the EC50 column has no unit, x axis in ng/ml
[8] = target: T3, Recombinant human STAT3-GST (human, UniProt P40763 1-770); assay: SPR (Biacore T200), antibody captured on anti-human Fc, STAT3-GST as analyte, 1:1 model
T3 construct: The order of STAT3 and GST follows the printed name 'STAT3-GST' only; not shown: GST (glutathione S-transferase) tag
T3 sequence (P40763 whole entry): as the sequence (P40763 whole entry) above
Method: Anti-human Fc antibody (GE, BR-1008-39) was immobilized on a CMS sensor chip to approximately 1000 RU using standard NHS/EDC coupling methodology. Antibodies (approximately 10 ug/ml) were captured for 60 seconds at a flow rate of 10 ul/min Recombinant human STAT3-GST was serially diluted 2-fold into running buffer (HBS-EP+, starting from […]). All measurements were conducted at a flow rate of 30 ul/min Surfaces were regenerated with 3M MgCl₂ (from human antibody kit) for 60 seconds. A 1:1 (Langmuir) binding model was used to fit the data.

[9] = target: T2, recombinant human STAT3 proteins; assay: binding ELISA with Superblock as blocking buffer; second column of the table taken as the curve labelled 901a (only two curves, two columns); coated antigen not named on the sheet, taken as STAT3; the EC50 row has no unit, x axis in ng/ml
[10] = target: T2, recombinant human STAT3 proteins; assay: 'Binding ELISA, Hu-IgO Detection' (sheet title), Superblock as blocking buffer; second column of the table taken as the curve labelled 901a; coated antigen not named, taken as STAT3; the EC50 row has no unit, x axis in ng/ml

- EC50 (read off the curve) [1]: ~6 nM
- EC50 (read off the curve) [2]: ~8 nM
B1: anti-STAT3 antibody ST1A5 (antibody, V domains shown)
VH: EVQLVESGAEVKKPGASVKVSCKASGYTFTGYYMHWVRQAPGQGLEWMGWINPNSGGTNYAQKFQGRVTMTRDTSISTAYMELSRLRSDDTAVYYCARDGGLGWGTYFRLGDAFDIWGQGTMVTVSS
VL: QSVLTQPPSVSKGLRQTATLTCTGNSNNVGNEGAAWLQQHQGHPPKLLSYRNFNRPSGISERFSASRSGNTASLTITGLQPEDEADYYCSAWDSSLSAWVFGGGTKLTVL
notes: Human antibody; it was detected with anti-human IgG

- EC50 (read off the curve) [3]: ~9 nM
- EC50 [4]: 0.0257 µg/mL
- EC50 [5]: 0.122 µg/mL
- binding result (GST protein): no binding
- EC50 (read off the curve) [6]: ~0.06 µg/mL
- EC50 [7]: 0.155 µg/mL
- Kd [8]: 5.39 nM
- koff [8]: 0.000322 s⁻¹
- kon [8]: 59700 M⁻¹ s⁻¹
- EC50 (read off the curve) [2]: ~4 nM
B2: anti-STAT3 antibody ST3G12 (unmodified) (antibody, V domains shown)
VH: QVQLVQSGAEVKKPGASVKVSCKASGYTFTSYYMHWVRQAPGQGLEWMGIINPSGGSTSYAQKFQGRVTMTRDTSTSTVYMELSSLRSEDTAVYYCARSDYVHSFDIWGQGTMVTVSS
VL: QPVLTQPPSASALLGASIKLTCTLSSEHSTYTVEWYQQRPGRSPQYIMNVKSDGSYNKGDGIPDRFMGSSSGADRYLTFSNLQSDDEAEYHCGESHRIDGQVGVVFGGGTKLTVL
notes: also called naked anti-STAT3 ST3G12 antibody

- EC50 [9]: 0.186 µg/mL
- binding result (GST protein): no binding
- EC50 (read off the curve) [6]: ~0.06 µg/mL and ~0.1 µg/mL
- EC50 [7]: 0.153 µg/mL
- Kd [8]: 0.222 nM
- koff [8]: 0.00011 s⁻¹
- kon [8]: 494000 M⁻¹ s⁻¹
- EC50 [10]: 0.0643 µg/mL
B3: compound 901a (ST3G12 conjugated to the phosphorothioate oligonucleotide, non-fluorescein version) (antibody, V domains shown)
VH: B2 VH
VL: B2 VL
modifications: phosphorothioate oligonucleotide joined to the antibody through a linker; residue(s) and chain of attachment not stated
notes: also called ST3G12-PS

Reference: US20170107289A1 (SORRENTO THERAPEUTICS, published 2017)
